Substitutions are numbered along the chain they refer to.
T1: human CD7 on cells (human, UniProt P09564 26-240)
T1 construct: whole, on cells; Target of the FACS and cell capture values and of the kill assays on CD7 single positive cells; also called CD7+ cells; Jurkat (CD33-/CD7+)
T1 sequence (looked up): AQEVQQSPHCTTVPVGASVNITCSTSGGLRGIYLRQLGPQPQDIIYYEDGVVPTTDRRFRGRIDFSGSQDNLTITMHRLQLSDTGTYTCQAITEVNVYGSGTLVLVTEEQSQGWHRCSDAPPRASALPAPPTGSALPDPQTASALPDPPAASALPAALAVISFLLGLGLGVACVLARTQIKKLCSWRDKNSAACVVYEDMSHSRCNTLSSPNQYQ

T2: human CD7 (human, UniProt P09564 26-180, limits assumed)
T2 construct: The construct is not described
T2 sequence (looked up): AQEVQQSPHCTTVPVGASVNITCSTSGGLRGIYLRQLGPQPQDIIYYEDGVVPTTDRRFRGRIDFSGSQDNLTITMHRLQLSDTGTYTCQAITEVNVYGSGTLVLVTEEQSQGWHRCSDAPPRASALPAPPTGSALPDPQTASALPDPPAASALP

B1: CD7-PP-1-WT CD7 binding arm (Fab, V domains shown)
VH: QVQLQESGAELVKPGASVKLSCKASGYTFTSYWMHWVKQRPGQGLEWIGKINPSNGRTNYNEKFKSKATLTVDKSSSTAYMQLSSLTSEDSAVYYCARGGVYYDLYYYALDYWGQGTTVTVSS
VL: DIELTQSPATLSVTPGDSVSLSCRASQSISNNLHWYQQKSHESPRLLIKSASQSISGIPSRFSGSGSGTDFTLSINSVETEDFGMYFCQQSNSWPYTFGGGTKLEIKR
notes: also called PP WT
B2: BVX130 (bispecific antibody)
heavy: QVQLQESGAELVKPGASVKLSCKASGYTFTSYWMHWVKQRPGQGLEWIGKINPSNGRTNYNEKFKSKATLTVDKSSSTAYMQLSSLTSEDSAVYYCARGGVYYALYYYALDYWGQGTTVTVSSASTKGPSVFPLAPSSKSTSGGTAALGCLVKDYFPEPVTVSWNSGALTSGVHTFPAVLQSSGLYSLSSVVTVPSSSLGTQTYCCNVNHKPSNTKVDKKVEPKSCDKT
light: DIELTQSPATLSVTPGDSVSLSCRASQSISNNLHWYQQKSHESPRLLIKSASQSISGIPSRFSGSGSGTDFTLSINSVETEDFGMYFCQQSNSWPYTFGGGTKLEIKRTVAAPSVFIFPPSDEQLKSGTASVVCLLNNFYPREAKVQWKVDNALQSGNSQESVTEQDSKDSTYSLSSTLTLSKADYEKHKVYACEVTHQGLSSPVTKSFNRGEC
VH: EVQLVQSGAEVKKPGSSVKVSCKASGYTITDSNIHWVRQAPGQSLEWIGYIYPYNGGTDYNQKFKNRATLTVDNPTNTAYMELSSLRSEDTAFYYCVNGNPWLAYWGQGTLVTVSS
VL: DIQLTQSPSTLSASVGDRVTIICRASESLDNYGIRFLTWFQQKPGKAPKLLMYAASNQGSGVPSRFSGSGSGTEFTLTISSLQPDDFATYYCQQTKEVPWSFGQGTKLEIK
notes: bi-Fab; also called CD33-PP-1 WT/CD7-PP-6
B3: BVX140 (bispecific antibody)
heavy: B2 heavy with R57G, A104D, Y108A
light: B2 light
VH: B2 VH
VL: B2 VL
notes: bi-Fab; also called CD33-PP-1 WT/CD7-PP-7

Experiments:
human CD7 on cells [1] = target: T1, human CD7 on cells; experiment: FACS; cells not named
human CD7 [2] = target: T2, human CD7; experiment: SPR
human CD7 [3] = target: T2, human CD7; experiment: SPR; reference 7-AA-WT
human CD7 on cells [4] = target: T1, human CD7 on cells; experiment: FACS; reference 7-PP-1 WT (itself)
human CD33 = target: T3, human CD33 (human, UniProt P20138 18-259, limits assumed); experiment: SPR (Kd); value of the CD33 arm 33-PP-1 WT
T3 construct: The construct is not described

human CD7 [5] = target: T2, human CD7; experiment: SPR (Kd); value of the CD7 arm 7-PP-6
human CD7 [6] = target: T2, human CD7; experiment: SPR (Kd); value of the CD7 arm 7-PP-7

T3 sequence (P20138 18-259 limits assumed): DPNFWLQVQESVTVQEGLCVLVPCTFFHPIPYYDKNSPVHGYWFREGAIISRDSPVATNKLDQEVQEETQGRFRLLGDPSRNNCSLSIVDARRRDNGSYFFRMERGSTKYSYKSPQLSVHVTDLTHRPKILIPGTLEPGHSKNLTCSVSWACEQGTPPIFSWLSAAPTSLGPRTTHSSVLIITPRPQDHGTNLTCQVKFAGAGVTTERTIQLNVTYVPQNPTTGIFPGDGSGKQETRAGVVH

| Binder | FACS binding (human CD7 on cells [1]) | Kd (human CD7 [2]) [nM] | Fold Reduction in binding affinity compared to WT (Kd) (human CD7 [3]) [fold] | FACS fold reduction compared to PP WT (human CD7 on cells [4]) [fold] | Fold reduction in binding affinity vs 33-PP-1 WT (human CD33) [fold] | Fold reduction in binding affinity vs 7-PP-1 WT (human CD7 [5]) [fold] | Fold reduction in binding affinity vs 7-PP-1 WT (human CD7 [6]) [fold] |
| --- | --- | --- | --- | --- | --- | --- | --- |
| B1 | 0.53 | 3.56 | 1.36 | 1 |  |  |  |
| B2 |  |  |  |  | 0 | 12.7 |  |
| B3 |  |  |  |  | 0 |  | 152 |

Source: patent publication US20250269048A1 (BIVICTRIX, published 2025)
